Laboratory results as given in publication PMC13250567, “U1 snRNP and RNA polymerase II interaction is predominantly mediated by Prp40 rather than U1-70K in yeast” (Nucleic Acids Research, 2026).

What was measured:
Conditions in all cases: both partners purified
[1] = biological target: T1, yeast RNA polymerase II, purified (CBP tag on RPB3) (yeast, UniProt P04050 1-1733; P08518 1-1224; P16370 1-318; P20433 1-221; P20434 1-215; P20435 …); assay: pull-down; GST fusion proteins on glutathione-Sepharose incubated with 1 μM purified pol II, 1.5 h, 4 °C; cleaved off with PreScission protease; Western blot with 8WG16 (RPB1) and anti-CBP
T1 construct: RPB1, largest subunit of yeast pol II, wild type with its CTD (26 heptapeptide repeats); RPB2 subunit of yeast pol II; RPB3 subunit of yeast pol II, TAP-tagged (CBP-TEV-protein A); CBP is left after TEV cleavage; RPB4 subunit of yeast pol II; RPB5 subunit of yeast pol II; RPB6 subunit of yeast pol II; RPB7 subunit of yeast pol II; RPB8 subunit of yeast pol II; RPB9 subunit of yeast pol II; RPB10 …

[2] = biological target: T1, yeast RNA polymerase II, purified (CBP …); assay: pull-down; protein A-tagged protein on IgG resin incubated with 0.4 μM purified pol II in 20 mM Tris–HCl pH 8.0, 150 mM NaCl, 0.5 mM DTT, 1.5 h, 4 °C; Western blot with 8WG16 (RPB1) and anti-CBP (RPB3-CBP)
[3] = biological target: T1, yeast RNA polymerase II, purified (CBP …); assay: cross-linking; purified pol II and Prp40 FF4-6 at ~1:1.5 molar ratio in 20 mM HEPES pH 7.5, 150 mM NaCl, 1 mM MgCl2, 0.5 mM TCEP; 1 mM DSSO or 2 mM SDA, 1 h, 4 °C; LC-MS/MS

B1: GST-fused Prp40 FF1 (134–189) (domain or fragment, S. cerevisiae, UniProt P33203 134-189, looked up)
chain: EAEKEFITMLKENQVDSTWSFSRIISELGTRDPRYWMVDDDPLWKKEMFEKYLSNR
notes: yeast Prp40 residues 134–189 (FF1); also called GST-FF1; source: E. coli (pGEX-6p-1), purified as GST fusion protein; not shown: GST, N-terminal, kept
B1: binds [1].

B2: GST-fused Prp40 FF2 (204–269) (domain or fragment, S. cerevisiae, UniProt P33203 204-269, looked up)
chain: FKEAFQKMLQNNSHIKYYTRWPTAKRLIADEPIYKHSVVNEKTKRQTFQDYIDTLIDTQKESKKKL
notes: yeast Prp40 residues 204–269 (FF2); also called GST-FF2; source: E. coli (pGEX-6p-1), purified as GST fusion protein; not shown: GST, N-terminal, kept
B2: binds [1].

B3: GST-fused Prp40 FF3 (270–335) (domain or fragment, S. cerevisiae, UniProt P33203 270-335, looked up)
chain: KTQALKELREYLNGIITTSSSETFITWQQLLNHYVFDKSKRYMANRHFKVLTHEDVLNEYLKIVNT
notes: yeast Prp40 residues 270–335 (FF3); also called GST-FF3; source: E. coli (pGEX-6p-1), purified as GST fusion protein; not shown: GST, N-terminal, kept
B3: binds [1].

B4: protein A-tagged Prp40 (full length) (natural protein, S. cerevisiae, UniProt P33203 1-583, looked up)
chain: MSIWKEAKDASGRIYYYNTLTKKSTWEKPKELISQEELLLRENGWKAAKTADGKVYYYNPTTRETSWTIPAFEKKVEPIAEQKHDTVSHAQVNGNRIALTAGEKQEPGRTINEEESQYANNSKLLNVRRRTKEEAEKEFITMLKENQVDSTWSFSRIISELGTRDPRYWMVDDDPLWKKEMFEKYLSNRSADQLLKEHNETSKFKEAFQKMLQNNSHIKYYTRWPTAKRLIADEPIYKHSVVNEKTKRQTFQDYIDTLIDTQKESKKKLKTQALKELREYLNGIITTSSSETFITWQQLLNHYVFDKSKRYMANRHFKVLTHEDVLNEYLKIVNTIENDLQNKLNELRLRNYTRDRIARDNFKSLLREVPIKIKANTRWSDIYPHIKSDPRFLHMLGRNGSSCLDLFLDFVDEQRMYIFAQRSIAQQTLIDQNFEWNDADSDEITKQNIEKVLENDRKFDKVDKEDISLIVDGLIKQRNEKIQQKLQNERRILEQKKHYFWLLLQRTYTKTGKPKPSTWDLASKELGESLEYKALGDEDNIRRQIFEDFKPESSAPTAESATANLTLTASKKRHLTPAVELDY
notes: yeast Prp40, full length, 583 residues; A TEV site lies between protein A and Prp40; also called ProtA-Prp40; source: yeast BCY123 (pRS414/GPD-protA-TEV-PRP40), purified on IgG resin; not shown: protein A, N-terminal, kept
B4: binds [2].

B5: Prp40 FF4-6 (351–552) (domain or fragment, S. cerevisiae, UniProt P33203 351-552, looked up)
chain: NYTRDRIARDNFKSLLREVPIKIKANTRWSDIYPHIKSDPRFLHMLGRNGSSCLDLFLDFVDEQRMYIFAQRSIAQQTLIDQNFEWNDADSDEITKQNIEKVLENDRKFDKVDKEDISLIVDGLIKQRNEKIQQKLQNERRILEQKKHYFWLLLQRTYTKTGKPKPSTWDLASKELGESLEYKALGDEDNIRRQIFEDFKPE
notes: yeast Prp40 residues 351–552 (FF4 to FF6); also called Prp40 FF4-6 protein; source: E. coli (pGEX-6p-1), purified
B5: binds [3].

B6: GST-fused Prp40 FF6 ext (488–583) (domain or fragment, S. cerevisiae, UniProt P33203 488-583, looked up)
chain: NERRILEQKKHYFWLLLQRTYTKTGKPKPSTWDLASKELGESLEYKALGDEDNIRRQIFEDFKPESSAPTAESATANLTLTASKKRHLTPAVELDY
notes: yeast Prp40 residues 488–583 (FF6 and the extension downstream of it, to the C-terminus); also called 6 extension; FF6 extension; source: E. coli (pGEX-6p-1), purified as GST fusion protein; not shown: GST, N-terminal, kept
B6: binds [1].

B7: GST-fused Prp40 FF4 (351–415) (domain or fragment, S. cerevisiae, UniProt P33203 351-415, looked up)
chain: NYTRDRIARDNFKSLLREVPIKIKANTRWSDIYPHIKSDPRFLHMLGRNGSSCLDLFLDFVDEQR
notes: yeast Prp40 residues 351–415 (FF4); also called GST-FF4; source: E. coli (pGEX-6p-1), purified as GST fusion protein; not shown: GST, N-terminal, kept
B7: binds [1].
